Earlier results, collected in patent US20260265800A1, “NEW FUCOSYLTRANSFERASES FOR IN VIVO SYNTHESIS OF LNFP-III” (DSM IP Assets B.V., priority 2022, published 2026).

Test system: β-galactosidase activity
Conditions: LacZ assay, cited from earlier work; for % Activity relative to PglpF: PglpF as positive reference, a range indicates results from multiple assays

| Molecule | % Activity relative to PglpF | Strength |
| --- | --- | --- |
| PglpF_SD4: promoter sequence, SEQ ID NO: 23 (nucleic acid) DNA: ATGCGCAAATGCGGCACGCCTTGCAGATTACGGTTTGCCACACTTTTCATCCTTCTCCTGGTGACATAATCCACATCAATCGAAAATGTTAATAAATTTGTTGCGCGAATGATCTAACAAACATGCATCATGTACAATCAGATGGAATAAATGGCGCGATAACGCTCATTTTATGACGAGGCACACACATTTTAAGTTCGATATTTCTCGTTTTTGCTCGTTAACGATAAGTTTACAGCATGCCTACAAGCATCGTGGAGGTCCGTGACTTTCACGCATACAACAAACATTAACCAACTAGGAAACAGCT | 140-161% | high (A regulatory element with an activity above 10,000 MU is considered strong) |
| PmglB_70UTR_SD9: promoter sequence, SEQ ID NO: 20 (nucleic acid) DNA: TGCGTCGCCATTCTGTCGCAACACGCCAGAATGCGGCGGCGATCACTAACTCAACAAATCAGGCGATGTAACCGCTTTCAATCTGTGAGTGATTTCACAGTATCTTAACAATGTGATAGCTATGATTGCACCGTGCCTACAAGCATCGTGGAGGTCCGTGACTTTCACGCATACAACAAACATTAACCAAAGGAAAAACAGCT | 180-226% | high (A regulatory element with an activity above 10,000 MU is considered strong) |
| PmglB_70UTR_SD7: promoter sequence, SEQ ID NO: 24 (nucleic acid) DNA: TGCGTCGCCATTCTGTCGCAACACGCCAGAATGCGGCGGCGATCACTAACTCAACAAATCAGGCGATGTAACCGCTTTCAATCTGTGAGTGATTTCACAGTATCTTAACAATGTGATAGCTATGATTGCACCGTGCCTACAAGCATCGTGGAGGTCCGTGACTTTCACGCATACAACAAACATTAACCAAGAGCAAAACAGCT | 127-173% | high (A regulatory element with an activity above 10,000 MU is considered strong) |
| PmglB_70UTR: promoter sequence, SEQ ID NO: 25 (nucleic acid) DNA: TGCGTCGCCATTCTGTCGCAACACGCCAGAATGCGGCGGCGATCACTAACTCAACAAATCAGGCGATGTAACCGCTTTCAATCTGTGAGTGATTTCACAGTATCTTAACAATGTGATAGCTATGATTGCACCGTGCCTACAAGCATCGTGGAGGTCCGTGACTTTCACGCATACAACAAACATTAACCAAGGAGGAAACAGCT | 124-234% | high (A regulatory element with an activity above 10,000 MU is considered strong) |
| PmglB_70UTR_SD5: promoter sequence, SEQ ID NO: 22 (nucleic acid) DNA: TGCGTCGCCATTCTGTCGCAACACGCCAGAATGCGGCGGCGATCACTAACTCAACAAATCAGGCGATGTAACCGCTTTCAATCTGTGAGTGATTTCACAGTATCTTAACAATGTGATAGCTATGATTGCACCGTGCCTACAAGCATCGTGGAGGTCCGTGACTTTCACGCATACAACAAACATTAACCAACCGAGAAACAGCT | 146-152% | high (A regulatory element with an activity above 10,000 MU is considered strong) |
| PmglB_70UTR_SD4: promoter sequence, SEQ ID NO: 21 (nucleic acid) DNA: TGCGTCGCCATTCTGTCGCAACACGCCAGAATGCGGCGGCGATCACTAACTCAACAAATCAGGCGATGTAACCGCTTTCAATCTGTGAGTGATTTCACAGTATCTTAACAATGTGATAGCTATGATTGCACCGTGCCTACAAGCATCGTGGAGGTCCGTGACTTTCACGCATACAACAAACATTAACCAACTAGGAAACAGCT | 153%-353% | high (A regulatory element with an activity above 10,000 MU is considered strong) |
